In article PMC11931385, “Structural and functional analysis of cancer-associated missense variants in the retinoblastoma protein pocket domain” (The Journal of Biological Chemistry, 2025):
No end group written: not given here. TMR = tetramethyl rhodamine dye

What was measured:
Experiment in all cases: fluorescence polarisation; 37 °C, after the 25 °C reading ramped over 7 min to 37 °C and 2 min incubation; unlabeled Rb^P against 1.5 nM TMR-E2F1^TD or 7.5 nM TMR-E7^LxCxE; 25 mM Tris pH 8.0, 200 mM NaCl, 1 mM DTT, 0.1% Tween-20; apparent Kd
Settings in all cases: both partners purified
Rb^P E440K = target: T1, Rb^P E440K (human, UniProt P06400 380-788, E440K)
T1 construct: also called variant 1
T1 sequence (looked up): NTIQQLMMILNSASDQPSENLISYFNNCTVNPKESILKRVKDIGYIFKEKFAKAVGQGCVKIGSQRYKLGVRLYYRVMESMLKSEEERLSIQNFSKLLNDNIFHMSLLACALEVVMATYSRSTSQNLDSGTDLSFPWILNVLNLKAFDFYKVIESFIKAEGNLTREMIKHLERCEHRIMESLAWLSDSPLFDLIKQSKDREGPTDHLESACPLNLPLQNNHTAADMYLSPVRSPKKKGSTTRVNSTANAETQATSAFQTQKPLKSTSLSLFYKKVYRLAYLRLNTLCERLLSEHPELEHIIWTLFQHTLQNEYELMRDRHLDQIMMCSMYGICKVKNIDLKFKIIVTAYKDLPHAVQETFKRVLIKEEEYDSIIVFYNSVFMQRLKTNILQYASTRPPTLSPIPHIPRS

Rb^P E533K = target: T2, Rb^P E533K (human, UniProt P06400 380-788, E533K)
T2 construct: also called variant 22
T2 sequence (looked up): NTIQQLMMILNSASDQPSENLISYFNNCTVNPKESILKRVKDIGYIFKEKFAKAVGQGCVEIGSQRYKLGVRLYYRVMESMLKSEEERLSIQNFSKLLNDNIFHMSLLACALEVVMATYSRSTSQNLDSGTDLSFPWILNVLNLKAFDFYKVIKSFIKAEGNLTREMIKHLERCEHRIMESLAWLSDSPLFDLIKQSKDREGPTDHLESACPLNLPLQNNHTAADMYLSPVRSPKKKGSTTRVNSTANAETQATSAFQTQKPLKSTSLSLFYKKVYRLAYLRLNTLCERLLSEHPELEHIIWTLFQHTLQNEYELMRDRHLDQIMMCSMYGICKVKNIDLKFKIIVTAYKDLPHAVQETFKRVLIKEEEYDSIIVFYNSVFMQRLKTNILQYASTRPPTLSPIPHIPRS

Rb^P T638S = target: T3, Rb^P T638S (human, UniProt P06400 380-788, T638S)
T3 construct: also called variant 45
T3 sequence (looked up): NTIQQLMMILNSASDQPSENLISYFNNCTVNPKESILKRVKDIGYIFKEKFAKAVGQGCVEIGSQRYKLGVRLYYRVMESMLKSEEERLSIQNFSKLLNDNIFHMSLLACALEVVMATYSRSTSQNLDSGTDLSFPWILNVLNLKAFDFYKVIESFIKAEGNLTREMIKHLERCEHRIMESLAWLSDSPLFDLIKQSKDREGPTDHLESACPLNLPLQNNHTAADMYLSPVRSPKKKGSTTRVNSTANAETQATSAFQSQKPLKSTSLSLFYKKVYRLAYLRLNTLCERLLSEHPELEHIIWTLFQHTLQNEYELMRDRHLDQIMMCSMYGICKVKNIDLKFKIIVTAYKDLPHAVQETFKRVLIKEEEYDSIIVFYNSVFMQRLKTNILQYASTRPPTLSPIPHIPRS

Rb^P H673Y = target: T4, Rb^P H673Y (human, UniProt P06400 380-788, H673Y)
T4 construct: also called variant 55
T4 sequence (looked up): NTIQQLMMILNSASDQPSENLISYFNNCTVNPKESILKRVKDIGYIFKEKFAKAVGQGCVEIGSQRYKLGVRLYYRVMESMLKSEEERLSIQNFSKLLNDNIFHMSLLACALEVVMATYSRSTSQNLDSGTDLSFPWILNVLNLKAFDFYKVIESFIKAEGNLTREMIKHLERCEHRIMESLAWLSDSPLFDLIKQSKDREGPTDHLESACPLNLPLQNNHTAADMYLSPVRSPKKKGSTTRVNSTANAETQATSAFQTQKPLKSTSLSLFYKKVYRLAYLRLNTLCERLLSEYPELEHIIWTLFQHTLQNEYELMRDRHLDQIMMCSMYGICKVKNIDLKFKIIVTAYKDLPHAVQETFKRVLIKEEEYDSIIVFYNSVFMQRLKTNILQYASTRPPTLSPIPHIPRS

Rb^P M695I = target: T5, Rb^P M695I (human, UniProt P06400 380-788, M695I)
T5 construct: also called variant 61
T5 sequence (looked up): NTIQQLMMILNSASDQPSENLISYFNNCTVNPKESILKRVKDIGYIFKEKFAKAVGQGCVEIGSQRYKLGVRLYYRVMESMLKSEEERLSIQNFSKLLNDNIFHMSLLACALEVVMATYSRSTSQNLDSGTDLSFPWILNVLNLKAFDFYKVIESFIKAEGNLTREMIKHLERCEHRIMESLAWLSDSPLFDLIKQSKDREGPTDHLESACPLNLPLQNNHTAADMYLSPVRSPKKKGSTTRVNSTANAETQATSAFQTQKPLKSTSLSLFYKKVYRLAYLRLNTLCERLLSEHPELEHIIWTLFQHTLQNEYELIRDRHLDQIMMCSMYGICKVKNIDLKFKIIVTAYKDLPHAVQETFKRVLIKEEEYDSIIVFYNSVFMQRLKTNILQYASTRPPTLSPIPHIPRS

B1: TMR-E2F1^TD, peptide of the E2F1 transactivation domain (peptide)
peptide: {TMR}-GEGIRDLFDCDFGDLTPLD
notes: also called E2F^TD; source: synthetic peptide, bought: GenScript
- Kd (Rb^P E440K): 27 nM
- Kd (Rb^P E533K): 1800 nM
- Kd (Rb^P T638S): 38 nM
- Kd (Rb^P H673Y): 66 nM
- Kd (Rb^P M695I): 165 nM

B2: TMR-E7^LxCxE, LxCxE peptide of the E7 oncoprotein from HPV (peptide)
peptide: DLYCYEQLN
modifications: also: TMR label, position not given here
notes: source: synthetic peptide, bought: GenScript
- Kd (Rb^P E440K): 13 nM
- Kd (Rb^P E533K): 14 nM
- Kd (Rb^P T638S): 14 nM
- Kd (Rb^P H673Y): 29 nM
- Kd (Rb^P M695I): 93 nM
